This note sets out measurements from US20140328858, “LIN28-MEDIATED CONTROL OF LET-7 BIOGENESIS” (Children's Medical Center Corporation, published 2014).

Data set [1] has as its system immunopurified Flag-Lin28.
In data set [2] the target is T1, Lin28A (Homo sapiens, UniProt Q9H9Z2 Q9H9Z2:2-209).
T1 sequence: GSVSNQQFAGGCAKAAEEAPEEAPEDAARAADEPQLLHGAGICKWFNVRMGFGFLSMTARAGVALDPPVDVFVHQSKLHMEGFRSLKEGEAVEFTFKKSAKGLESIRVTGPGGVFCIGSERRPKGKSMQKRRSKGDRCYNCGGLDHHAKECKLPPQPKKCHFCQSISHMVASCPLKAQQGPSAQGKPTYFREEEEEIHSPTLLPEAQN
The data set is described as follows: EMSA; 50 mM Tris pH 7.5, 100 mM NaCl, 10 mM bME, RT, 0.5 nM RNA; Kd fitted (Hill) but value not in text. Conditions: tags: 6xHis N-terminal, E. coli (pET21); label: 5'-end label (EMSA); hairpin. The method, then:
(§1) EMSA was performed with pre-let-7g to analyze the relative binding affinities of the two recombinant proteins. Lin28A and Lin28B have apparent Kds of approximately 0.6 nM and 0.5 nM, respectively (FIG. 7B). Both these estimated Kds are much lower than a previously reported for recombinant mouse Lin28A. This difference is likely due to the omission here of nonspecific yeast tRNA competitor used previously in the binding buffer. Piskounova et al., 2008. […] Collectively, these assays reveal that both Lin28 proteins can directly bind to let-7 precursors with high-affinity in vitro.
(§2) Transformed BL21-CodonPlus® Competent bacteria (Stratagene) were grown to an OD600 nm of 0.4-0.6. Expression was induced 100 μM IPTG for 2-3 hours. Cell pellets were resuspended in cold lysis buffer [20 mM imidazole pH 8.0 in PBS, 0.1% Phenylmethyl sulfonyl fluoride (PMSF)] and sonicated. Cleared lysates were incubated with Ni-NTA beads and after 90 min incubation at 4° C. the beads were washed with 80-column-vol. wash buffer [10 mM Tris (pH 7.8), 50 mM imidazole pH 8.0, 500 mM NaCl, 0.1% PMSF). […] Band intensities of scanned gels were quantified using ImageJ software and used to calculate percentage of probe bound. […]
(In general: In EMSA bound probe runs differently from free probe, usually more slowly.)

Data set [3] concerns the target T2, Lin28B (Homo sapiens, UniProt Q6ZN17 Q6ZN17:2-250).
T2 sequence: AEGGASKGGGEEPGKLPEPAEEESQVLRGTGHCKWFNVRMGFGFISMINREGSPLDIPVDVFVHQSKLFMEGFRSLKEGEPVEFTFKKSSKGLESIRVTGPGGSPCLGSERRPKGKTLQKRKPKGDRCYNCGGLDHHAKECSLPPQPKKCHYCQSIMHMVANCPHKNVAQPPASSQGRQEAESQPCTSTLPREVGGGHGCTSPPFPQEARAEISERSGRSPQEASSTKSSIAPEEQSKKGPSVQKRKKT
The description is as above. Particulars: tags: 6xHis N-terminal, E. coli (pET21); label: 5'-end label (EMSA); hairpin. The method, then:
as §1, §2

The target in data set [4] is immunopurified Flag-Lin28. The source holds these as a separate data set.

Where two headings read alike, the source gives them in different places.

Consider “mZcchc11 ΔC2H2 (N-terminal truncation lacking the C2H2 zinc finger)”, for which the “in vitro uridylation of synthetic pre-let-7 (incorporation of radiolabeled UTP)” value in data set [1] is given as “Loss of the N-terminal C2H2 domain still allowed for basal activity, but this mutant could no longer support Lin28-enhanced uridylation against pre-let-7”.

B1: pre-let-7g (ssRNA)
RNA: GAGGUAGUAGUUUGUACAGUUUGAGGGUCUAUGAUACCACCCGGUACAGGAGAUAACUGUACAGGCCACUGCCUUGC
As to B1, the binding result in data set [2] and in data set [3] was “binds” throughout.

B2: mZcchc11 C326/329A (full-length) (protein)
chain: MEEPKTSKNENHEPKKNIICEESKAVKIISNQTLKPRNDKSEIGTSSLNRNSSKKTKQNDICIEKTEAKSCKVNAASVPGPKDLGLVHRDQSHCKMKKLPNSPMKAQKGSSQTKLEKTPSLQTKAEKVPKSPNLPVKAEKAPCTTAEATTEKALNSQRKEENTPTSQMKLQKTPRSPLEPENVPSLLLKENVKQTESQQTGKKLTSSFVSMDKRKSEALQGEKSALENSSLSQKQQTQTDNIADSDDSASGIEDTADDLSKMKSEESNKENSSEMDYLENATVIDESALTPEQRLGLKQAEERLERDHIFRLEKRSPEYTNCRYLAKLALIHIENIQGAHKHIKEKRHKKNILEKQEESELRSLPSPSSAHLAALSVAVVELAKEQGITDDDLRIRQDIVEEMSKVIMTFLPECSLRLYGSSLTKFALKSSDVNIDIKFPPKMNHPDLLIQVLGILKKSALYIDVESDFHAKVPVVVCKDRKSALLCRVSAGNDMACLTTDLLAALGKVEPVFTPLVLAFRYWAKLCYIDSQTDGGIPSYCFALMVMFFLQQRKPPLLPCLLGSWIEGFDPKRMDDFQLKGIVEEKFVKWEYNSSSATEKNLIADENKAKADEPKDDTKKTETDNQSNAAKAKHGKSPLTLEAPNQVPLGQLWLELLKFYTLDFALEEYVICVRIQDILTRENKNWPKRRIAIEDPFSVKRNVARSLNSQLVYEYVVERFRAAYRYFACPQKKGGNKSTMDPKKKEKGKLSSKKPVKSDCSATNCCILGESAEKIHMERGQPAKHDETEFTSQRCIVDNDSLLVNELGLANHGQDSSSLSTASGGSDLKQKSAEKQGDLTPSETSLKKELSQCICIGTPDGAESAGTDCRSNLEMDSSHQIVCNNVSATSCNCKATEVTSDLVDEDNLPSQELYYVFDKFILTSGKPPTIVCSICKKDGHSKNDCPEDFRKIDLKPLPPMTNRFREILDLVCKRCFDELSPPCSEQHNREQILIGLEKFIQKEYDEKARLCLFGSSKNGFGFRDSDLDICMTLEGHENAEKLNCKEIIENLAKILKRHPGLRNILPITTAKVPIVKFEHRRSGLEGDISLYNTLAQHNTRMLATYAAIDPRVQYLGYTMKVFAKRCDIGDASRGSLSSYAYILMVLYFLQQRKPPVIPVLQEIFDGKQIPQRMVDGWNAFFFDKTEELKKRLPSLGKNTESLGELWLGLLRFYTEEFDFKEYVISIRQKKLLTTFEKQWTSKCIAIEDPFDLNHNLGAGVSRKMTNFIMKAFINGRKLFGTPFYPLIGREAEYFFDSRVLTDGELAPNDRCCRVCGKIGHYMKDCPKRKRLKKKDSEEEKEGNEEEKDSRDLLDSRDLRCFICGDAGHVRRECPEVKMARQRNSSVAAAQLVRNLVNAQQVAGSAQQQSDQSIRTRQSSECSDSPSYSPQPQPFPQNSPQPSALPPPPSQPGSQPKLGPPQQGGQPPHQVQMPLYNFPQSPPAHYSPMHSMGLLPMHPLQIPAPSWPIHGPMLHSAPGSTPSNIGLNDPSIIFAQPAARPMAIPSPSHDGHWPRTVAPNSLVNNGAVGNSEPRFRGLNPPIPWEHAPRHFPLVPASWPYGLHQNFMHQGNPRFQPKPFYAQADRCATRRCRERCPHPPRGNVSE
In the case of B2, the “in vitro uridylation of synthetic pre-let-7 (incorporation of radiolabeled UTP)” value in data set [4] is given as “this mutant exhibited only basal uridylation activity, as the addition of Lin28 had no impact on its catalysis in vitro”.
